Assays:
[1] = target: IL-TIF protein (human) (human) (UniProt Q9GZX6); assay: cell-based or functional assay
[2] = target: zcytor11 and CRF2-4 receptors co-expressed on transfected BaF3 or BHK cells (human) (UniProt Q08334); assay: cell-based or functional assay
zcytor11 and CRF2-4 receptors co-expressed on transfected BaF3 or BHK cells (human), sequence (chain, as listed by the source limits assumed, chain 1 of 2): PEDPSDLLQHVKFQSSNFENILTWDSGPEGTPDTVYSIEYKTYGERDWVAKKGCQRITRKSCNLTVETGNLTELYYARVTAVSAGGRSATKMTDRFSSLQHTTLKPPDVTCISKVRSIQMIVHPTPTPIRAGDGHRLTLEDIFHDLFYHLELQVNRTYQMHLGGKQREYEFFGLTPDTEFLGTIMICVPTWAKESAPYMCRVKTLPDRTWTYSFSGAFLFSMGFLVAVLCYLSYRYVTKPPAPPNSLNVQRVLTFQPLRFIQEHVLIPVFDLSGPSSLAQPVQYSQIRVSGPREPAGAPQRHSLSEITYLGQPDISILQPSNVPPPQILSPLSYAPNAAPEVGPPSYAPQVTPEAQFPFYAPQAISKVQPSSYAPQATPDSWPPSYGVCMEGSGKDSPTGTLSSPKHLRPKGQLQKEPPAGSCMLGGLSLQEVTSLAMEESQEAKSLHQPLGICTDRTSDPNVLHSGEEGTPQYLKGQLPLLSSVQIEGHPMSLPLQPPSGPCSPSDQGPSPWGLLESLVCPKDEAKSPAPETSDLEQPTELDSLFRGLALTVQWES
zcytor11 and CRF2-4 receptors co-expressed on transfected BaF3 or BHK cells (human), sequence (Q08334 20-325 limits assumed, chain 2 of 2): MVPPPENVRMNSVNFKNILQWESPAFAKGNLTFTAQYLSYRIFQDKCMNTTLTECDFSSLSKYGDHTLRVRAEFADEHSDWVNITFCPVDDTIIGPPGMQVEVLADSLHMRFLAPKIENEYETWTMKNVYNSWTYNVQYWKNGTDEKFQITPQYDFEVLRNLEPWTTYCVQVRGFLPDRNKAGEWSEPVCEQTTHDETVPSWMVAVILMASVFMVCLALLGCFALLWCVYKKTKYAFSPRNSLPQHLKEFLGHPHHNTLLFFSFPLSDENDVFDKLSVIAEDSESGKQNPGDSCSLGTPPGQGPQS

CRF2-4/zcytor11-Fc soluble receptor heterodimer (Fc fusion), sequence (chain): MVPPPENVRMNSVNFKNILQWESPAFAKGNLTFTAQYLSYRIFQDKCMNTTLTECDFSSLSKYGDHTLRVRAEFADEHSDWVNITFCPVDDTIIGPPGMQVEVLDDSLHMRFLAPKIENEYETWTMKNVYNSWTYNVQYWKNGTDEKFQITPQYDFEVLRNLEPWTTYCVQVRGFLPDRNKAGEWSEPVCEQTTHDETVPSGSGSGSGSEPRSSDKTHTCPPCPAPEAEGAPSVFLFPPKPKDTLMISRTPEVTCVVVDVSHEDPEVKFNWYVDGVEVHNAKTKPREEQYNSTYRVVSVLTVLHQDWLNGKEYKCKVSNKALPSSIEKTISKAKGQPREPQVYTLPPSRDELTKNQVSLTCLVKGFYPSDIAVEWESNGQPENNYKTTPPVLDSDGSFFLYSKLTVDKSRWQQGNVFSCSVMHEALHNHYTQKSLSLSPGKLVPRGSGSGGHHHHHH
CRF2-4/zcytor11-Fc soluble receptor heterodimer (Fc fusion), sequence (chain): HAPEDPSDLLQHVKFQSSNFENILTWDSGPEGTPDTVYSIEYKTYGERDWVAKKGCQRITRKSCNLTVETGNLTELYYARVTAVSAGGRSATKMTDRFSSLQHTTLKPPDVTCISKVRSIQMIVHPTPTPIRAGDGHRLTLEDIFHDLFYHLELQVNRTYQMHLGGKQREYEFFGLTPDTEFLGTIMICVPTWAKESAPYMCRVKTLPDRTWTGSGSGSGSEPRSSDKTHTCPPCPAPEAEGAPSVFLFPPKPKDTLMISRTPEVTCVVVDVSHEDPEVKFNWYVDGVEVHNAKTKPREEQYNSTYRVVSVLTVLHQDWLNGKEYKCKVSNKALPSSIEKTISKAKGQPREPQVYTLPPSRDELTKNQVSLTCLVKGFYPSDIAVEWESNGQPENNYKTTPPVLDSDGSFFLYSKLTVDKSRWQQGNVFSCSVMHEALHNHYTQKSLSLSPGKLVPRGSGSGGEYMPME
IL-TIF protein (human) (human), sequence (Q9GZX6 34-179 limits assumed): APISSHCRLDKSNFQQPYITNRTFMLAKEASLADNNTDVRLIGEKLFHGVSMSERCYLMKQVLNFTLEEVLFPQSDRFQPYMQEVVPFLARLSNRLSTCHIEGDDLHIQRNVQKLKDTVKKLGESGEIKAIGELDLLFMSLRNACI

Substance: CRF2-4/zcytor11-Fc soluble receptor heterodimer (Fc fusion)
- inhibition of IL-TIF-induced proliferation (Alamar Blue), concentration at which inhibition was barely detectable [1]: 1.6 ng/mL
- inhibition of IL-TIF-induced proliferation (Alamar Blue), concentration giving complete inhibition [1]: 25 to 200 ng/mL
- inhibition of IL-TIF-induced proliferation (Alamar Blue), concentration giving partial inhibition [1]: 3.1 to 12.5 ng/mL

Substance: IL-TIF protein (human) (from UniProt Q9GZX6 34-179) (ligand)
- Alamar Blue proliferation of BaF3/CRF2-4/zcytor11 cells, fold over background [2]: 30 fold
